Results from article PMC9482650, “Quantitative fragmentomics allow affinity mapping of interactomes” (Nature Communications, 2022).

molecular target: Inadl_8, Q8NI35; test: holdup assay; set-up: key: below the threshold = too weak to quantify, mostly under pKd 3.1 to 4; details: plain residues with an end cap or a label only (N-terminal biotin on a linker: ttds)
Sequence (Q8NI35 1425-1530): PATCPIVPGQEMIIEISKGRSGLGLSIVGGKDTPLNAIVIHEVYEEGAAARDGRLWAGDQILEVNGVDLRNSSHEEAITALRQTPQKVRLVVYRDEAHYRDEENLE

Binder | pKd
QPGTPTRTAV [MAP2K2, P36507] | 3.78
RRVRKLPSTTL [RPS6KA1, Q15418] | below the threshold

molecular target: T1, SNTA1, Q13424; test: holdup assay; set-up: key: below the threshold = too weak to quantify, mostly under pKd 3.1 to 4; details: plain residues with an end cap or a label only (N-terminal biotin on a linker: ttds)
T1 sequence (Q13424 82-180, limits assumed, looked up): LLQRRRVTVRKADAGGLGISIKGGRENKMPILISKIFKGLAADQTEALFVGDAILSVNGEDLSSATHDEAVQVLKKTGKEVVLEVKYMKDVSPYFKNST

Binder | pKd
QPGTPTRTAV [MAP2K2, P36507] | below the threshold
RRVRKLPSTTL [RPS6KA1, Q15418] | 3.87

molecular target: LIMK2, P53671; test: holdup assay; set-up: key: below the threshold = too weak to quantify, mostly under pKd 3.1 to 4; details: plain residues with an end cap or a label only (N-terminal biotin on a linker: ttds)
Sequence (P53671 143-248): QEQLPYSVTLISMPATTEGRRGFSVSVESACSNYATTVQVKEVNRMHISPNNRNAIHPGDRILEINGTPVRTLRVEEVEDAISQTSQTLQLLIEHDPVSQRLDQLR

Binder | pKd
QPGTPTRTAV [MAP2K2, P36507] | below the threshold
RRVRKLPSTTL [RPS6KA1, Q15418] | below the threshold

molecular target: TJP2_1, Q9UDY2; test: holdup assay; set-up: key: below the threshold = too weak to quantify, mostly under pKd 3.1 to 4; details: plain residues with an end cap or a label only (N-terminal biotin on a linker: ttds)
Sequence (Q9UDY2 24-128): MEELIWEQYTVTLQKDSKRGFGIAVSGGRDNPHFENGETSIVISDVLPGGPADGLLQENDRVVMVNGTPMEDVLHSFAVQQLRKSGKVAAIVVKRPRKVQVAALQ

Binder | pKd
QPGTPTRTAV [MAP2K2, P36507] | 3.71
RRVRKLPSTTL [RPS6KA1, Q15418] | below the threshold

molecular target: MAGI2_5, Q86UL8; test: holdup assay; set-up: key: below the threshold = too weak to quantify, mostly under pKd 3.1 to 4; details: plain residues with an end cap or a label only (N-terminal biotin on a linker: ttds)
Sequence (Q86UL8 915-1017): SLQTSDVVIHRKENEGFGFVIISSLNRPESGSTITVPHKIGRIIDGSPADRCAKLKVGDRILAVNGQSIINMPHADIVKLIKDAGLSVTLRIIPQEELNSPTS

Binder | pKd
QPGTPTRTAV [MAP2K2, P36507] | 3.59
RRVRKLPSTTL [RPS6KA1, Q15418] | below the threshold

molecular target: NHERF4_1, Q86UT5-2; test: holdup assay; set-up: key: below the threshold = too weak to quantify, mostly under pKd 3.1 to 4; details: plain residues with an end cap or a label only (N-terminal biotin on a linker: ttds)
Sequence (Q86UT5 other isoform, or with tags, fused parts or gaps): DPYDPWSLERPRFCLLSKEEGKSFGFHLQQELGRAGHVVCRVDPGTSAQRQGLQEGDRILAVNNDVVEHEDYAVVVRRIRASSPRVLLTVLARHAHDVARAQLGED

Binder | pKd
QPGTPTRTAV [MAP2K2, P36507] | 3.52
RRVRKLPSTTL [RPS6KA1, Q15418] | 3.57

molecular target: T2, GRIP1_2, Q9Y3R0; test: holdup assay; set-up: key: below the threshold = too weak to quantify, mostly under pKd 3.1 to 4; details: plain residues with an end cap or a label only (N-terminal biotin on a linker: ttds)
T2 sequence (Q9Y3R0 145-248, limits assumed, looked up): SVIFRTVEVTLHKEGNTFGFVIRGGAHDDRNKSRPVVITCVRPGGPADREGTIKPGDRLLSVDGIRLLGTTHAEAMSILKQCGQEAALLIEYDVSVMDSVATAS

Binder | pKd
QPGTPTRTAV [MAP2K2, P36507] | below the threshold
RRVRKLPSTTL [RPS6KA1, Q15418] | below the threshold

molecular target: T3, TX1BP3, O14907; test: holdup assay; set-up: key: below the threshold = too weak to quantify, mostly under pKd 3.1 to 4; details: plain residues with an end cap or a label only (N-terminal biotin on a linker: ttds)
T3 sequence (O14907 10-122, limits assumed, looked up): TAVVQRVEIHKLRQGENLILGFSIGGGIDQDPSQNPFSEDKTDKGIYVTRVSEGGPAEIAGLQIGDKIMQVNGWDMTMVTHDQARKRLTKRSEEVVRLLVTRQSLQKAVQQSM

Binder | pKd
QPGTPTRTAV [MAP2K2, P36507] | 3.97
RRVRKLPSTTL [RPS6KA1, Q15418] | below the threshold

molecular target: T4, LIN7C, Q9NUP9; test: holdup assay; set-up: key: below the threshold = too weak to quantify, mostly under pKd 3.1 to 4; details: plain residues with an end cap or a label only (N-terminal biotin on a linker: ttds)
T4 sequence (Q9NUP9 88-185, limits assumed, looked up): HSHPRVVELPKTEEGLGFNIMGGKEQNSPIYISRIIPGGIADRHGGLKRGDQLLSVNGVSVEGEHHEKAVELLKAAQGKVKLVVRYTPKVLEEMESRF

Binder | pKd
QPGTPTRTAV [MAP2K2, P36507] | below the threshold
RRVRKLPSTTL [RPS6KA1, Q15418] | below the threshold

molecular target: T5, RHPN1, Q8TCX5; test: holdup assay; set-up: key: below the threshold = too weak to quantify, mostly under pKd 3.1 to 4; details: plain residues with an end cap or a label only (N-terminal biotin on a linker: ttds)
T5 sequence (Q8TCX5 508-602, limits assumed, looked up): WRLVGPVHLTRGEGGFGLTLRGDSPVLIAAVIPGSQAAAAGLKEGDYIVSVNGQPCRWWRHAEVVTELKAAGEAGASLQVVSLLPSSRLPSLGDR

Binder | pKd
QPGTPTRTAV [MAP2K2, P36507] | below the threshold
RRVRKLPSTTL [RPS6KA1, Q15418] | 4.26

molecular target: T6, RAPGEF6, Q8TEU7; test: holdup assay; set-up: key: below the threshold = too weak to quantify, mostly under pKd 3.1 to 4; details: plain residues with an end cap or a label only (N-terminal biotin on a linker: ttds)
T6 sequence (Q8TEU7 525-625, limits assumed, looked up): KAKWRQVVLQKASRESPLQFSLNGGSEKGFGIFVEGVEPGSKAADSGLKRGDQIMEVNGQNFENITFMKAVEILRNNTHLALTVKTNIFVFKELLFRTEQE

Binder | pKd
QPGTPTRTAV [MAP2K2, P36507] | 3.67
RRVRKLPSTTL [RPS6KA1, Q15418] | 3.7

molecular target: Inadl_10, Q8NI35; test: holdup assay; set-up: key: below the threshold = too weak to quantify, mostly under pKd 3.1 to 4; details: plain residues with an end cap or a label only (N-terminal biotin on a linker: ttds)
Sequence (Q8NI35 1673-1763): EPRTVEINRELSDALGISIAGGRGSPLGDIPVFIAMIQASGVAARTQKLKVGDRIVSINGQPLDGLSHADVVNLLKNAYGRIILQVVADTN

Binder | pKd
QPGTPTRTAV [MAP2K2, P36507] | below the threshold
RRVRKLPSTTL [RPS6KA1, Q15418] | below the threshold

molecular target: T7, APBA1_1, Q02410; test: holdup assay; set-up: key: below the threshold = too weak to quantify, mostly under pKd 3.1 to 4; details: plain residues with an end cap or a label only (N-terminal biotin on a linker: ttds)
T7 sequence (Q02410 651-752, limits assumed, looked up): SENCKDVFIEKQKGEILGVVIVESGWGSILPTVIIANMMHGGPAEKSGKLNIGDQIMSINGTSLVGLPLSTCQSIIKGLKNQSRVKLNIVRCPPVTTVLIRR

Binder | pKd
QPGTPTRTAV [MAP2K2, P36507] | below the threshold
RRVRKLPSTTL [RPS6KA1, Q15418] | below the threshold

molecular target: T8, SNTB1, Q13884; test: holdup assay; set-up: key: below the threshold = too weak to quantify, mostly under pKd 3.1 to 4; details: plain residues with an end cap or a label only (N-terminal biotin on a linker: ttds)
T8 sequence (Q13884 107-205, limits assumed, looked up): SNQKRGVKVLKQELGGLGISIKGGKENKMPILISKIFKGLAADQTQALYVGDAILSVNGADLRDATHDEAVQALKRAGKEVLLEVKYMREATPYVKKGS

Binder | pKd
QPGTPTRTAV [MAP2K2, P36507] | below the threshold
RRVRKLPSTTL [RPS6KA1, Q15418] | 4.14

molecular target: MAST2, Q6P0Q8; test: holdup assay; set-up: key: below the threshold = too weak to quantify, mostly under pKd 3.1 to 4; details: plain residues with an end cap or a label only (N-terminal biotin on a linker: ttds)
Sequence (Q6P0Q8 1099-1202): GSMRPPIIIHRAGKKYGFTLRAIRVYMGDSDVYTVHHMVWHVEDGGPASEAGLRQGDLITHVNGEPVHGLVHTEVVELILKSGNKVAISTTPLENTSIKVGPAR

Binder | pKd
QPGTPTRTAV [MAP2K2, P36507] | 4.34
RRVRKLPSTTL [RPS6KA1, Q15418] | 5.37

molecular target: T9, DVL3, Q92997; test: holdup assay; set-up: key: below the threshold = too weak to quantify, mostly under pKd 3.1 to 4; details: plain residues with an end cap or a label only (N-terminal biotin on a linker: ttds)
T9 sequence (Q92997 244-331, limits assumed, looked up): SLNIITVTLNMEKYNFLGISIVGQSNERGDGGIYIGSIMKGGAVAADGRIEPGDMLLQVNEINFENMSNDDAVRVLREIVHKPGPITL

Binder | pKd
QPGTPTRTAV [MAP2K2, P36507] | below the threshold
RRVRKLPSTTL [RPS6KA1, Q15418] | below the threshold

molecular target: MAGI2_2, Q86UL8; test: holdup assay; set-up: key: below the threshold = too weak to quantify, mostly under pKd 3.1 to 4; details: plain residues with an end cap or a label only (N-terminal biotin on a linker: ttds)
Sequence (Q86UL8 410-522): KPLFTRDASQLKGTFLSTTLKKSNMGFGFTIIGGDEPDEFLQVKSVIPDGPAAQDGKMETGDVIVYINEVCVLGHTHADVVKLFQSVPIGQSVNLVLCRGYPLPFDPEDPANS

Binder | pKd
QPGTPTRTAV [MAP2K2, P36507] | 3.64
RRVRKLPSTTL [RPS6KA1, Q15418] | 4.4

molecular target: ARHGEF12, Q9NZN5-2; test: holdup assay; set-up: key: below the threshold = too weak to quantify, mostly under pKd 3.1 to 4; details: plain residues with an end cap or a label only (N-terminal biotin on a linker: ttds)
Sequence (Q9NZN5 other isoform, or with tags, fused parts or gaps): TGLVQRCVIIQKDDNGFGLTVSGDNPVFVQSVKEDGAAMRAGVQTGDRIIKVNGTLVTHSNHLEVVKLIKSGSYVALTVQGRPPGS

Binder | pKd
QPGTPTRTAV [MAP2K2, P36507] | 3.66
RRVRKLPSTTL [RPS6KA1, Q15418] | 5.45

molecular target: NHERF4_4, Q86UT5; test: holdup assay; set-up: key: below the threshold = too weak to quantify, mostly under pKd 3.1 to 4; details: plain residues with an end cap or a label only (N-terminal biotin on a linker: ttds)
Sequence (Q86UT5 464-550): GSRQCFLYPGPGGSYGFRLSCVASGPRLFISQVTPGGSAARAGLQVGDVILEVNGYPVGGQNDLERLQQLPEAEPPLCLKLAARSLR

Binder | pKd
QPGTPTRTAV [MAP2K2, P36507] | below the threshold
RRVRKLPSTTL [RPS6KA1, Q15418] | 3.49

molecular target: DLG5_1, Q8TDM6; test: holdup assay; set-up: key: below the threshold = too weak to quantify, mostly under pKd 3.1 to 4; details: plain residues with an end cap or a label only (N-terminal biotin on a linker: ttds)
Sequence (Q8TDM6 617-713): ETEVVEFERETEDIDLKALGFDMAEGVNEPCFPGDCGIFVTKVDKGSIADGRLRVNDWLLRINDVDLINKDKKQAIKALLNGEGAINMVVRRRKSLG

Binder | pKd
QPGTPTRTAV [MAP2K2, P36507] | below the threshold
RRVRKLPSTTL [RPS6KA1, Q15418] | below the threshold

molecular target: DLG2_3, Q15700; test: holdup assay; set-up: key: below the threshold = too weak to quantify, mostly under pKd 3.1 to 4; details: plain residues with an end cap or a label only (N-terminal biotin on a linker: ttds)

Binder | pKd
QPGTPTRTAV [MAP2K2, P36507] | 3.91
RRVRKLPSTTL [RPS6KA1, Q15418] | 3.49

molecular target: GRIP2_3, Q9C0E4; test: holdup assay; set-up: key: below the threshold = too weak to quantify, mostly under pKd 3.1 to 4; details: plain residues with an end cap or a label only (N-terminal biotin on a linker: ttds)
Sequence (Q9C0E4 238-339): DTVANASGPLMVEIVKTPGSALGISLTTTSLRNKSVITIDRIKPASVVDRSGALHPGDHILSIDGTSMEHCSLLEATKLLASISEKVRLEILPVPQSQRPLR

Binder | pKd
QPGTPTRTAV [MAP2K2, P36507] | below the threshold
RRVRKLPSTTL [RPS6KA1, Q15418] | below the threshold

molecular target: IL16_1, Q14005; test: holdup assay; set-up: key: below the threshold = too weak to quantify, mostly under pKd 3.1 to 4; details: plain residues with an end cap or a label only (N-terminal biotin on a linker: ttds)
Sequence (Q14005 210-306): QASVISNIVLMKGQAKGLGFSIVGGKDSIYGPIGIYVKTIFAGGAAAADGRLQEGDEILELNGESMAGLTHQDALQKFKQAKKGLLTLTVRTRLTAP

Binder | pKd
QPGTPTRTAV [MAP2K2, P36507] | below the threshold
RRVRKLPSTTL [RPS6KA1, Q15418] | below the threshold

molecular target: DLG1_2, Q12959; test: holdup assay; set-up: key: below the threshold = too weak to quantify, mostly under pKd 3.1 to 4; details: plain residues with an end cap or a label only (N-terminal biotin on a linker: ttds)
Sequence (Q12959 314-412): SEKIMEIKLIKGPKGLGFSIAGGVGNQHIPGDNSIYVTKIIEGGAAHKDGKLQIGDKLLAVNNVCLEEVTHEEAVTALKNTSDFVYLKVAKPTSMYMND

Binder | pKd
QPGTPTRTAV [MAP2K2, P36507] | 3.99
RRVRKLPSTTL [RPS6KA1, Q15418] | 3.7

molecular target: T10, SNTG1, Q9NSN8; test: holdup assay; set-up: key: below the threshold = too weak to quantify, mostly under pKd 3.1 to 4; details: plain residues with an end cap or a label only (N-terminal biotin on a linker: ttds)
T10 sequence (Q9NSN8 52-150, limits assumed, looked up): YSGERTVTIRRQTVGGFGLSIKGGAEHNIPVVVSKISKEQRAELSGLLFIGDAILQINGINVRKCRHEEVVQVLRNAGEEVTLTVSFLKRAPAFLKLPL

Binder | pKd
QPGTPTRTAV [MAP2K2, P36507] | 3.66
RRVRKLPSTTL [RPS6KA1, Q15418] | 3.88

molecular target: T11, HTRA4, P83105; test: holdup assay; set-up: key: below the threshold = too weak to quantify, mostly under pKd 3.1 to 4; details: plain residues with an end cap or a label only (N-terminal biotin on a linker: ttds)
T11 sequence (P83105 378-476, limits assumed, looked up): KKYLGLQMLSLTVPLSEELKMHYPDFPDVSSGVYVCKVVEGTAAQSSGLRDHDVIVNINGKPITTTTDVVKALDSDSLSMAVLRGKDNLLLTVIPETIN

Binder | pKd
QPGTPTRTAV [MAP2K2, P36507] | below the threshold
RRVRKLPSTTL [RPS6KA1, Q15418] | 3.71
